Reference: IntAct's records for PubMed 22863780

Target: rcan1_mouse Rcan1 (UniProt Q9JHG6)

## Fragile X messenger ribonucleoprotein 1 (Mus musculus) (from UniProt P35922) S499A
  effect of a mutation on the interaction: disrupting interaction
